Measurements: patent US20250122298A1 (OSSIANIX, published 2025)
Blank lines part the entries; values can stand above or below the binder they belong to.

Assays:
[1] = target: T1, recombinant human TfR-1 (human, UniProt P02786 89-760, limits assumed); assay: ELISA on coated hTfR1, crude ExpiHEK expression media, normalised to TXP1
T1 construct: also called hTfR-1; hTfR1
Experimental: FIG. 6. Expression level and hTfR1 binding of 20 single-region variants of TXP1 measured by ELISA. Variants were designed to remove potential MHCII binding motifs in each region separately with the mutations described in Table 5. Each deimmunized variant was transiently expressed in 0.5 ml scale in ExpiHEK cells and the crude media were tested by ELISA for hTfRIbinding and expression level in comparison to parental TXP1. The data were normalized to TXP1 and the variants with binding or expression >0.5-fold were evaluated further.
Mutating the primary anchoring residue in each MHCII binding motif was prioritized to minimize manipulation of the sequence with maximal reduction in binding score. Alternative positions were also considered when replacement of an anchor residue might disrupt the protein structure or where removing the anchor residue was insufficient to eliminate MHCII binding. Based on the in silico analyses, 20 single-region deimmunized variants of TXP1 (6 in region 1, 10 in region 2, and 4 in region 3) were genetically synthesized and evaluated (Table 5). Expression and hTfR1 binding were measured in crude media from transfected ExpiHEK cells (FIG. 6). […] Region 3 required all three substitutions to eliminate predicted MHCII binding, and all three mutations individually and when combined (TXP1-R3-1-4) were expressed well and retained parental levels of TfR-1 binding.

[2] = target: T1, recombinant human TfR-1; assay: ELISA, plate-coated recombinant hTfR1, anti-hFc HRP detection
Experimental: (§1) TfR1 ELISA. Nunc MaxiSorp plates were coated with 100 ul of 1 μg/ml of in-house purified recombinant human, cynomolgus TfR1 or HSA and incubated at 4° C. overnight. Plates were incubated with blocking buffer (2.5% non-fat dry milk in PBST) for 1 hr at RT. Serial dilutions of TXP1, TXPID1 or TXP1D4 were mixed with non-fat dry milk in PBST to a final concentration of 2.5% and incubated for 30 min. Blocked VNAR antibody solutions (100 μl) were transferred to the blocked plates and incubated for 1 hr. Plates were washed with PBST and incubated with anti-hFc HRP-conjugated antibody diluted 1:5,000 (Sigma) in blocking buffer for 30 min. Plates were washed and developed with SureBlue TMB substrate. Were indicated the velocity of colorimetric reaction development was measured in the kinetic mode at 370 nm and the maximum peak was used for quantitation (Vmax at 370 nm). Alternatively, the TMB reaction was stopped with 1% HCl and absorbance was measured at 450 nm (OD at 450 nm).

[3] = target: T2, recombinant cynomolgus TfR-1 (cynomolgus, UniProt H9EXL1 89-760 (rhesus entry)); assay: SPR Biacore T200, multi-cycle kinetics, 1:1 model
T2 construct: also called cTfR-1; cTfR1
T2 sequence (chain, as listed by the source): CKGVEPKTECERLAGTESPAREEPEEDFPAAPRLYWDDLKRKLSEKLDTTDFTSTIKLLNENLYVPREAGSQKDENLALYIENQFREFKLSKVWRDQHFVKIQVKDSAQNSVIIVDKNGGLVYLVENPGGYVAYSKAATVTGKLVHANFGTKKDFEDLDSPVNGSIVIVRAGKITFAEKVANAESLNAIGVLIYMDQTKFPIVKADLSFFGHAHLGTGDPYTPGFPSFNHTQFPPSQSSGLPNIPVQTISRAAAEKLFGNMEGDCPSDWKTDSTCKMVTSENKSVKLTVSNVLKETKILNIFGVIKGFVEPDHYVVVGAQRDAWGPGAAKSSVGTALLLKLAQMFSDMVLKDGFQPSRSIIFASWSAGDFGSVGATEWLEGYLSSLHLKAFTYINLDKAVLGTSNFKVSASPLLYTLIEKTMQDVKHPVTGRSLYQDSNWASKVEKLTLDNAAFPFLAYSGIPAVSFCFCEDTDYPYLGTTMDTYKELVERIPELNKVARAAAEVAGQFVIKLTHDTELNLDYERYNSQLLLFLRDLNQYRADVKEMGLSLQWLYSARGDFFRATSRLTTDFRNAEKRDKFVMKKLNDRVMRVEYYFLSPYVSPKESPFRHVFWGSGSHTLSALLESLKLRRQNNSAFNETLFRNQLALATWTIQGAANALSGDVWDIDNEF

[4] = target: T1, recombinant human TfR-1; assay: SPR Biacore T200, His-tagged TfR1 captured by anti-His, multi-cycle kinetics, 1:1 model
Experimental: Binding kinetics. Binding kinetics of TXP1, TXP1D1 and TXP1D4 were determined by surface plasmon resonance (SPR) using a Biacore T200 (GE Healthcare). A His-capture kit (GE Healthcare) was used to immobilize anti-His antibodies on CM5 chips (as recommended by the manufacturer). His-tagged recombinant hTfR1 in 0.1% BSA in HBS-EP+ buffer (GE Healthcare) was captured at flow rate 10 μl/min. Analyte binding was measured using the multi-cycle kinetic SPR method. Starting analyte concentrations at 400 nM and serially diluted in 1:4 in seven steps. Association and dissociation were measured for 360s and 1500s respectively, with flow rate at 30 μl/min. The chips were regenerated in 10 mM Glycine-HCl, pH 1.5. Sensorgrams were fitted using 1:1 binding model and kinetic constants determined using Biacore T200 Evaluation software (Cytiva).

[5] = target: T2, recombinant cynomolgus TfR-1; assay: ELISA, plate-coated recombinant cTfR1, anti-hFc HRP detection
Experimental: as §1

[6] = target: T3, cell surface human TfR1 on hCMEC/D3 and SH-SY5Y cells (human, UniProt P02786 1-760); assay: flow cytometry on hCMEC/D3 cells on ice, binding to cell surface TfR1, anti-hFc Alexa647
T3 construct: whole, on cells; Endogenous receptor on the cell lines; also called cell surface TfR1; cell-surface hTfR1
T3 sequence (P02786 whole entry): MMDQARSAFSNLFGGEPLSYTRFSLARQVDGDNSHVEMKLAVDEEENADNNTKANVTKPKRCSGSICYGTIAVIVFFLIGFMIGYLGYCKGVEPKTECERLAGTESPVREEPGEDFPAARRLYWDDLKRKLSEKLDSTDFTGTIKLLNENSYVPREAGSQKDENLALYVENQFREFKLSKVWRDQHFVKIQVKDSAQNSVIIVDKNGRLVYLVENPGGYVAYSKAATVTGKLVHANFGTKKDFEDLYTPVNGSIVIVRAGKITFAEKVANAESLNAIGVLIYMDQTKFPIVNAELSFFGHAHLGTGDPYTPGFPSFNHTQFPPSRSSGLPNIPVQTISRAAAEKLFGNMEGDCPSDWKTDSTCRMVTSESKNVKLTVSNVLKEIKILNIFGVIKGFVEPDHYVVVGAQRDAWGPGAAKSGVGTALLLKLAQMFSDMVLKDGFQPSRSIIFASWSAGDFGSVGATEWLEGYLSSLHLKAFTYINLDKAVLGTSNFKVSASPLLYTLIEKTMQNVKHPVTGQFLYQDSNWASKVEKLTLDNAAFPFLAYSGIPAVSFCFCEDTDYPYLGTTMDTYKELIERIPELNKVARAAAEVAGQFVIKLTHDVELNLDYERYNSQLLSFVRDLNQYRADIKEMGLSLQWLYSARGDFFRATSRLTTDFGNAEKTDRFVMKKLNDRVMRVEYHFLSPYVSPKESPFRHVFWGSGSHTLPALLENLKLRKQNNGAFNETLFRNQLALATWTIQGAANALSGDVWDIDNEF
Experimental: Functional activity of the fully deimmunized variants was assessed using the hCMEC/D3 human endothelial cell line and the SY-SH5Y human neuronal cell line. Binding to hCMEC/D3 cells was assessed by incubation with serial antibody dilutions for 1h on ice to avoid internalization. The cells were fixed and binding to cell surface TfR1 was measured by flow cytometry. […] Internalization via cell-surface hTfR1 was assessed using the hCMEC/D3 and SY-SH5Y cell lines by incubation with the antibodies for 1 hour at 37° C.
Flow cytometry. hCMEC/D3 cells were seeded onto V-bottom 96-well plates at a density of 1×10⁴ cells/well. All incubations were carried out on ice to prevent internalization. After blocking in PBS containing 10% BSA (FACS buffer), cells were incubated with serial dilutions of TXP1. Cells were stained with propidium iodine (PI; Biolegend) for 20 min, followed by anti-hFc conjugated to Alexa647 diluted 1:300 (Jackson ImmunoResearch) for 30 min. After fixation in 4% PFA for 15 min, the cells were analyzed on a CytoFlex flow cytometer (Beckman Coulter). Gating of cells stained with secondary antibody alone was used to set the negative threshold for and the fluorescence intensity of approximately 1000 cells per condition was measured. EC50 values were calculated using a four parametric non-linear regression model.

T1 sequence (P02786 89-760 limits assumed): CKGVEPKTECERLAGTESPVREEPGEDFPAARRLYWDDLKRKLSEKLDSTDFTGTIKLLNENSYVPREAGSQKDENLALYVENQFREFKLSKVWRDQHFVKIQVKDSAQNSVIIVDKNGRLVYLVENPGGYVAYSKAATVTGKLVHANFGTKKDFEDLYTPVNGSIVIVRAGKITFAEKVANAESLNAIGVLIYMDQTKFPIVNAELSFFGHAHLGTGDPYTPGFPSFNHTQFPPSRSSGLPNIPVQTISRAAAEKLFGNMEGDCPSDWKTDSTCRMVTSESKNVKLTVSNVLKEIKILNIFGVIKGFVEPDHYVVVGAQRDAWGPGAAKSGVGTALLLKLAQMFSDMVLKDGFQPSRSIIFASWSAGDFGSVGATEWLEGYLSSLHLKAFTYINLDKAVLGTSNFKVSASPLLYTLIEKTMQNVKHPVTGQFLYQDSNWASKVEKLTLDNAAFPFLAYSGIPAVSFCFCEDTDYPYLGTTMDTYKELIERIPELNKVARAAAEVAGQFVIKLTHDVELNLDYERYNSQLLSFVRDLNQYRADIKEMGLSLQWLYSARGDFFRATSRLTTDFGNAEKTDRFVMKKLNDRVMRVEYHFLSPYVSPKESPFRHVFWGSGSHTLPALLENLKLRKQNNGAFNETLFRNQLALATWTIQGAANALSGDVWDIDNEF

B1: TXP1-R1-1 (Fc fusion)
chain: ARVDQTPQTATKETGESLTINCVLRDSNCALSSTYWYRKKSGSTNEENISKGGRYVETVNSGSKSFSLKINDLTVEDSGTYRCNVVGTWCMSWRDVYGGGTAVTVNA
notes: Single-region variant of TXP1; tested in crude expression media; not shown: human IgG1 Fc (hFc) with AEF mutations incl. deletion of G236 (printed AG236)
hTfR1 binding relative to parental TXP1 (fold) [1]: 0.5 fold

B3: TXP1-R2-3 (Fc fusion)
chain: ARVDQTPQTITKETGESLTINCVLRDSNCALSSTYWYRKKSGSTNEENISKGGRNVETVNSGSKSFSLKINDLTVEDSGTYRCNVVGTWCMSWRDVYGGGTAVTVNA
notes: as for B1
hTfR1 binding relative to parental TXP1 (fold) [1]: 0.5 fold

B6: TXP1-R1-4 (Fc fusion)
chain: ARVDQTPQTTTKETGESLTINCVLRDSNCALSSTYWYRKKSGSTNEENISKGGRYVETVNSGSKSFSLKINDLTVEDSGTYRCNVVGTWCMSWRDVYGGGTAVTVNA
notes: as for B1
hTfR1 binding relative to parental TXP1 (fold) [1]: 0.5 fold

B9: TXP1-R2-5 (Fc fusion)
chain: ARVDQTPQTITKETGESLTINCVLRDSNCALSSTYWYRKKSGSTNEENISKGGRTVETVNSGSKSFSLKINDLTVEDSGTYRCNVVGTWCMSWRDVYGGGTAVTVNA
notes: as for B1
hTfR1 binding relative to parental TXP1 (fold) [1]: 0.5 fold

B10: TXP1-R2-2 (Fc fusion)
chain: ARVDQTPQTITKETGESLTINCVLRDSNCALSSTYWYRKKSGSTNEENISKGGRHVETVNSGSKSFSLKINDLTVEDSGTYRCNVVGTWCMSWRDVYGGGTAVTVNA
notes: as for B1
hTfR1 binding relative to parental TXP1 (fold) [1]: 0.5 fold

B11: TXP1-R2-4 (Fc fusion)
chain: ARVDQTPQTITKETGESLTINCVLRDSNCALSSTYWYRKKSGSTNEENISKGGRSVETVNSGSKSFSLKINDLTVEDSGTYRCNVVGTWCMSWRDVYGGGTAVTVNA
notes: as for B1
hTfR1 binding relative to parental TXP1 (fold) [1]: 0.5 fold

B12: TXP1-R1-2 (Fc fusion)
chain: ARVDQTPQTETKETGESLTINCVLRDSNCALSSTYWYRKKSGSTNEENISKGGRYVETVNSGSKSFSLKINDLTVEDSGTYRCNVVGTWCMSWRDVYGGGTAVTVNA
notes: as for B1
hTfR1 binding relative to parental TXP1 (fold) [1]: 0.5 fold

B13: TXP1-R1-3 (Fc fusion)
chain: ARVDQTPQTSTKETGESLTINCVLRDSNCALSSTYWYRKKSGSTNEENISKGGRYVETVNSGSKSFSLKINDLTVEDSGTYRCNVVGTWCMSWRDVYGGGTAVTVNA
notes: as for B1
hTfR1 binding relative to parental TXP1 (fold) [1]: 0.5 fold

Second part, the binder after the results:

hTfR1 binding relative to parental TXP1 (fold) [1]: 0.5 fold
B2: TXP1-R2-10 (Fc fusion)
chain: ARVDQTPQTITKETGESLTINCVLRDSNCALSSTYWYRKKSGSTNEENISKGGKYVETVQSGSKSFSLKINDLTVEDSGTYRCNVVGTWCMSWRDVYGGGTAVTVNA
notes: as for B1

hTfR1 binding relative to parental TXP1 (fold) [1]: 0.5 fold
B4: TXP1-R2-9 (Fc fusion)
chain: ARVDQTPQTITKETGESLTINCVLRDSNCALSSTYWYRKKSGSTNEENISKGGKYVETVESGSKSFSLKINDLTVEDSGTYRCNVVGTWCMSWRDVYGGGTAVTVNA
notes: as for B1

EC50 [2]: 3.5 nM
Kd [3]: 2.2 nM
koff [3]: 0.00016 s⁻¹
kon [3]: 73000 M⁻¹ s⁻¹
Kd [4]: 4.6 nM
koff [4]: 0.00031 s⁻¹
kon [4]: 67000 M⁻¹ s⁻¹
EC50 [5]: 2.2 nM
EC50 [6]: 1.6 nM
B5: TXP1D1 (Fc fusion)
chain: ARVDQTPQTATKETGESLTINCVLRDSNCALSSTYWYRKKSGSTNEENISKGGRYVETVDSGTKSFSLKINDLTVEDSGTYRCNVVGTWCMSWRDVSGDGTVVTVNA
notes: Fully deimmunized variant of TXP1, VNAR-hFc format; also called TXPID1; not shown: human IgG1 Fc (hFc) with AEF mutations incl. deletion of G236 (printed AG236)

EC50 [2]: 4.1 nM
Kd [3]: 1.7 nM
koff [3]: 0.00014 s⁻¹
kon [3]: 87000 M⁻¹ s⁻¹
Kd [4]: 3 nM
koff [4]: 0.00026 s⁻¹
kon [4]: 87000 M⁻¹ s⁻¹
EC50 [5]: 3 nM
EC50 [6]: 2.1 nM
B7: TXP1D4 (Fc fusion)
chain: ARVDQTPQTATKETGESLTINCVLRDSNCALSSTYWYRKKSGSTNEENISKGGKYVETVESGSKSFSLKINDLTVEDSGTYRCNVVGTWCMSWRDVSGDGTVVTVNA
notes: Fully deimmunized variant of TXP1, VNAR-hFc format; also called TXPID4; not shown: human IgG1 Fc (hFc) with AEF mutations incl. deletion of G236 (printed AG236)

hTfR1 binding relative to parental TXP1 (fold) [1]: 0.5 fold
B8: TXP1-R2-6 (Fc fusion)
chain: ARVDQTPQTITKETGESLTINCVLRDSNCALSSTYWYRKKSGSTNEENISKGGRYVETVDSGTKSFSLKINDLTVEDSGTYRCNVVGTWCMSWRDVYGGGTAVTVNA
notes: as for B1
